Reference: patent US20220089722A1 (NANTONG YICHEN BIOPHARMA, published 2022)

Experiments:
[1] = target: T1, EGFR on F98-EGFR cells (UniProt P00533 25-1210, limits assumed); test: cell-based or functional assay
[2] = target: T1, EGFR on F98-EGFR cells; test: flow cytometry on F98-EGFR cells; protein purified on CH1 resin
[3] = target: T2, CD3 on T cells (Jurkat T cells; PBMC-T cells); test: flow cytometry on Jurkat T cells; protein purified on CH1 resin
T2 construct: whole, on cells; the target is inferred from the anti-CD3 arm of the constructs
T2 sequence (P07766 23-207): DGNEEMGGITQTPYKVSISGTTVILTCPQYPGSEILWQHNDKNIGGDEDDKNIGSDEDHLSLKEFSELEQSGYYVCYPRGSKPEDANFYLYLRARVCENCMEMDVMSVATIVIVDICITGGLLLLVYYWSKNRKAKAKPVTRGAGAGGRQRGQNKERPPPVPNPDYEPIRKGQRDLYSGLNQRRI

[4] = target: T1, EGFR on F98-EGFR cells; test: flow cytometry on F98-EGFR cells; protein purified on Protein A resin
[5] = target: T2, CD3 on T cells (Jurkat T cells; PBMC-T …); test: flow cytometry on Jurkat T cells; protein purified on Protein A resin

B1: IgFD-29(anti-CD3/EGFR) (bispecific antibody, human IgG1, kappa)
chain 1: EVQLVESGGGLVQPGGSLRLSCAASGFTFNTYAMNWVRQAPGKGLEWVARIRSKYNNYATYYADSVKDRFTISRDDSKNTLYLQMNSLRAEDTAVYYCVRHGNFGNSYVSWFAYWGQGTLVTVSSASTKGPSVFPLAPSSKSTSGGTAALGCLVKDYFPEPVTVSWNSGALTSGVHTFPAVLQSSGLYSLSSVVTVPSSSLGTQTYICNVNHKPSNTKVDKKVEPKSCDKTHTCPPCPAPPVAGPSVFLFPPKPKDTLMISRTPEVTCVVVDVSHEDPEVKFNWYVDGVEVHNAKTKPREEQYNSTYRVVSVLTVLHQDWLNGKEYKCKVSNKGLPSSIEKTISKAKGQPREPQVYTLPPCRDELTKNQVSLWCLVKGFYPSDIAVEWESNGQPENNYKTTPPVLDSDGSFFLYSKLTVDKSRWQQGNVFSCSVMHEALHNHYTQKSLSLSPGKGGSGGSGGGGSGGGGSQVQLQESGPGLVKPSETLSLTCTVSGGSVSSGDYYWTWIRQSPGKGLEWIGHIYYSGNTNYNPSLKSRLTISIDTSKTQFSLKLSSVTAADTAIYYCVRDRVTGAFDIWGQGTMVTVSS
chain 2: QAVVTQEPSLTVSPGGTVTLTCRSSTGAVTTSNYANWVQQKPDHLFRGLIGGTNKRAPGTPARFSGSLLGDKAALTISGAQPEDEAEYYCALWYSNLWVFGGGTKLTVLKRTVAAPSVFIFPPSDEQLKSGTASVVCLLNNFYPREAKVQWKVDNALQSGNSQESVTEQDSKDSTYSLSSTLTLSKADYEKHKVYACEVTHQGLSSPVTKSFNRGECDKTHTCPPCPAPPVAGPSVFLFPPKPKDTLMISRTPEVTCVVVDVSHEDPEVKFNWYVDGVEVHNAKTKPREEQYNSTYRVVSVLTVLHQDWLNGKEYKCKVSNKGLPSSIEKTISKAKGQPREPQVCTLPPSRDELTKNQVSLSCAVKGFYPSDIAVEWESNGQPENNYKTTPPVLDSDGSFFLVSKLTVDKSRWQQGNVFSCSVMHEALHNHYTQKSLSLSPGKGGSGGSGGGGSGGGGSDIQMTQSPSSLSASVGDRVTITCQASQDISNYLNWYQQKPGKAPKLLIYDASNLETGVPSRFSGSGSGTDFTFTISSLQPEDIATYFCQHFDHLPLAFGGGTKVEIK
notes: (ProA)/(CH1) = purification resin; also called IgFD-29(ProA); IgFD-29(CH1)
Question: How did the “Promotion for the specific killing effect of PBMCs on target cells by heterodimers (EC50, pM); F98-EGFR cells, LDH assay; IgFD-29(CH1)” value [1] turn out when B1 was run?
Answer: 338 pM

Question: And the “Promotion for the specific killing effect of PBMCs on target cells by heterodimers (EC50, pM); F98-EGFR cells, LDH assay; IgFD-29(ProA)” value [1]?
Answer: 293 pM

Question: What about the Kd [2] of the same binder?
Answer: 78 nM

Question: And the Kd [3]?
Answer: 6.82 nM

Question: What about the Kd [4] of the same binder?
Answer: 77.5 nM

Question: What about the Kd [5] of the same binder?
Answer: 7.42 nM

B2: IgFD-30(anti-CD3/EGFR) (bispecific antibody, human IgG1, kappa)
chain 1: EVQLVESGGGLVQPGGSLRLSCAASGFTFNTYAMNWVRQAPGKGLEWVARIRSKYNNYATYYADSVKDRFTISRDDSKNTLYLQMNSLRAEDTAVYYCVRHGNFGNSYVSWFAYWGQGTLVTVSSASTKGPSVFPLAPSSKSTSGGTAALGCLVKDYFPEPVTVSWNSGALTSGVHTFPAVLQSSGLYSLSSVVTVPSSSLGTQTYICNVNHKPSNTKVDKKVEPKSCDKTHTCPPCPAPPVAGPSVFLFPPKPKDTLMISRTPEVTCVVVDVSHEDPEVKFNWYVDGVEVHNAKTKPREEQYNSTYRVVSVLTVLHQDWLNGKEYKCKVSNKGLPSSIEKTISKAKGQPREPQVYTLPPCRDELTKNQVSLWCLVKGFYPSDIAVEWESNGQPENNYKTTPPVLDSDGSFFLYSKLTVDKSRWQQGNVFSCSVMHEALHNHYTQKSLSLSPGKGGSGGSGGGGSGGGGSDIQMTQSPSSLSASVGDRVTITCQASQDISNYLNWYQQKPGKAPKLLIYDASNLETGVPSRFSGSGSGTDFTFTISSLQPEDIATYFCQHFDHLPLAFGGGTKVEIK
chain 2: QAVVTQEPSLTVSPGGTVTLTCRSSTGAVTTSNYANWVQQKPDHLFRGLIGGTNKRAPGTPARFSGSLLGDKAALTISGAQPEDEAEYYCALWYSNLWVFGGGTKLTVLKRTVAAPSVFIFPPSDEQLKSGTASVVCLLNNFYPREAKVQWKVDNALQSGNSQESVTEQDSKDSTYSLSSTLTLSKADYEKHKVYACEVTHQGLSSPVTKSFNRGECDKTHTCPPCPAPPVAGPSVFLFPPKPKDTLMISRTPEVTCVVVDVSHEDPEVKFNWYVDGVEVHNAKTKPREEQYNSTYRVVSVLTVLHQDWLNGKEYKCKVSNKGLPSSIEKTISKAKGQPREPQVCTLPPSRDELTKNQVSLSCAVKGFYPSDIAVEWESNGQPENNYKTTPPVLDSDGSFFLVSKLTVDKSRWQQGNVFSCSVMHEALHNHYTQKSLSLSPGKGGSGGSGGGGSGGGGSQVQLQESGPGLVKPSETLSLTCTVSGGSVSSGDYYWTWIRQSPGKGLEWIGHIYYSGNTNYNPSLKSRLTISIDTSKTQFSLKLSSVTAADTAIYYCVRDRVTGAFDIWGQGTMVTVSS
notes: (ProA)/(CH1) = purification resin; also called IgFD-30(ProA); IgFD-30(CH1)
Question: What does the source list for B2?
Answer: Promotion for the specific killing effect of PBMCs on target cells by heterodimers (EC50, pM); F98-EGFR cells, LDH assay; IgFD-30(CH1) [1]: 435 pM; Promotion for the specific killing effect of PBMCs on target cells by heterodimers (EC50, pM); F98-EGFR cells, LDH assay; IgFD-30(ProA) [1]: 651 pM; Kd [2]: 86.3 nM; Kd [3]: 7.35 nM; Kd [4]: 131 nM; Kd [5]: 6.74 nM

B3: IgFD-28(anti-CD3/EGFR) (bispecific antibody, human IgG1, kappa)
chain 1: EVQLVESGGGLVQPGGSLRLSCAASGFTFNTYAMNWVRQAPGKGLEWVARIRSKYNNYATYYADSVKDRFTISRDDSKNTLYLQMNSLRAEDTAVYYCVRHGNFGNSYVSWFAYWGQGTLVTVSSASTKGPSVFPLAPSSKSTSGGTAALGCLVKDYFPEPVTVSWNSGALTSGVHTFPAVLQSSGLYSLSSVVTVPSSSLGTQTYICNVNHKPSNTKVDKKVEPKSCDKTHTCPPCPAPPVAGPSVFLFPPKPKDTLMISRTPEVTCVVVDVSHEDPEVKFNWYVDGVEVHNAKTKPREEQYNSTYRVVSVLTVLHQDWLNGKEYKCKVSNKGLPSSIEKTISKAKGQPREPQVYTLPPCRDELTKNQVSLWCLVKGFYPSDIAVEWESNGQPENNYKTTPPVLDSDGSFFLYSKLTVDKSRWQQGNVFSCSVMHEALHNHYTQKSLSLSPGK
chain 2: QAVVTQEPSLTVSPGGTVTLTCRSSTGAVTTSNYANWVQQKPDHLFRGLIGGTNKRAPGTPARFSGSLLGDKAALTISGAQPEDEAEYYCALWYSNLWVFGGGTKLEIKRTVAAPSVFIFPPSDEQLKSGTASVVCLLNNFYPREAKVQWKVDNALQSGNSQESVTEQDSKDSTYSLSSTLTLSKADYEKHKVYACEVTHQGLSSPVTKSFNRGECDKTHTCPPCPAPPVAGPSVFLFPPKPKDTLMISRTPEVTCVVVDVSHEDPEVKFNWYVDGVEVHNAKTKPREEQYNSTYRVVSVLTVLHQDWLNGKEYKCKVSNKGLPSSIEKTISKAKGQPREPQVCTLPPSRDELTKNQVSLSCAVKGFYPSDIAVEWESNGQPENNYKTTPPVLDSDGSFFLVSKLTVDKSRWQQGNVFSCSVMHEALHNHYTQKSLSLSPGKGGSGGSGGGGSGGGGSDIQMTQSPSSLSASVGDRVTITCQASQDISNYLNWYQQKPGKAPKLLIYDASNLETGVPSRFSGSGSGTDFTFTISSLQPEDIATYFCQHFDHLPLAFGGGTKVEIKGGGGSGGGGSGGGGSQVQLQESGPGLVKPSETLSLTCTVSGGSVSSGDYYWTWIRQSPGKGLEWIGHIYYSGNTNYNPSLKSRLTISIDTSKTQFSLKLSSVTAADTAIYYCVRDRVTGAFDIWGQGTMVTVSS
notes: also called IgFD-28(ProA); IgFD-28(CH1)
Question: B3 was tested. Which “Promotion for the specific killing effect of PBMCs on target cells by heterodimers (EC50, pM); F98-EGFR cells, LDH assay; IgFD-28(CH1)” value [1] did it give?
Answer: 11.4 pM

Question: And the “Promotion for the specific killing effect of PBMCs on target cells by heterodimers (EC50, pM); F98-EGFR cells, LDH assay; IgFD-28(ProA)” value [1]?
Answer: 14.7 pM

Question: What about the Kd [2] of the same binder?
Answer: 2.86 nM

Question: What about the Kd [3] of the same binder?
Answer: 10.4 nM

Question: What about the Kd [4] of the same binder?
Answer: 3.81 nM

Question: And the Kd [5]?
Answer: 12.2 nM
